We go through two molecules from patent publication US20240025997A1 (NGM BIOPHARMACEUTICALS, published 2024).

For assay [1], the target named is T1, soluble human ILT2-ECD (human, UniProt Q8NHL6 24-461).
T1 construct: also called LILRB1 extracellular domain
The experiment in a line: Biacore competition: antibody titrated against 20 nM ILT2-ECD, mixture injected over biotinylated HLA-A*1101 on a NeutrAvidin chip; blocked ligand HLA-A*1101. The protocol: (§1) As part of the characterization process, the ability of exemplary antibodies to inhibit or block the interaction of ILT2 or ILT4 with their natural ligands was evaluated in competition experiments using a Biacore system. As described herein, the natural ligands of ILT2 and ILT4 include, but are not limited to, HLA class I molecules, including HLA-A, HLA-B, HLA-C, HLA-E, and HLA-G. Biotinylated HLA-A*1101 was captured in high amounts on a NeutrAvidin chip surface. Antigen-antibody complexes were prepared with (i) ILT2-ECD and anti-ILT2 antibody 27F9, anti-ILT4 antibody 48A5, or anti-ILT2/ILT4 antibody Hz73D1.v1 and (ii) ILT4-ECD and anti-ILT2 antibody 27F9, anti-ILT4 antibody 48A5, or anti-ILT2/ILT4 antibody Hz73D1.v1. The antibody concentration of each antibody was titrated from 0.09-100 nM and the concentration of human ILT2-ECD or ILT4-ECD was kept constant at 20 nM. The complexes were mixed in a 96-well microplate and each was injected onto the HLA-A-coated chip surface. The measured signal (response unit, RU) was plotted against the antibody concentration.
In general terms: SPR reads the build-up and loss of mass on a sensor chip optically.

For a further assay, the target named is human ILT2 on cells (human, UniProt Q8NHL6 24-650). The experiment in a line: cell-based or functional assay.
A further assay concerns the target Human ILT2-Fc (human, UniProt Q8NHL6 24-461, limits assumed). As to the kind of experiment: SPR (Biacore) competition: blocking of human ILT2-Fc binding to HLA-A, 25 C. On the procedure: In addition to the reporter cell system, the inhibitory activity of anti-ILT2/ILT4 antibodies towards the interaction between ILT2 and MHC I molecules, and the interaction between ILT4 and MHC I molecules was evaluated using the Biacore system. Human ILT2-Fc and ILT4-Fc were used as target receptors and their interaction with an exemplary MHC-I molecule (HLA-A) was assayed in the presence or absence of an exemplary anti-ILT2/ILT4 antibody Hz73D1.v1 at 25° C. Anti-human ILT2 (clone 27F9) or ILT4 (clone 48A5) antibodies were used as tool reagents to dissect ILT2- and ILT4-specific blocking activities. Anti-IL2/ILT4 antibodies produced a dose-dependent reduction in the interaction between ILT2 and HLA-A, as well as between ILT4 and HLA-A. IC50s of the antibodies tested are shown in Table 16.

The target of assay [2] is T1, soluble human ILT2-ECD. The experiment in a line: SPR (Biacore), antibody captured on Protein A chip, soluble ILT-ECD injected (1.6-200 nM), 25 C. On the procedure: (§2) The binding affinities of anti-ILT2 and anti-ILT4 antibodies were measured using a Biacore system (GE Healthcare LifeSciences). Equilibrium dissociation constant (KD) measurements were carried out with purified antibodies to evaluate their binding to human ILT2, human ILT4, and rhesus ILT2. Briefly, purified anti-ILT2 antibody 27F9, anti-ILT4 antibodies 47C8 and 48A5, and anti-ILT2/ILT4 antibodies 47H6, 51A1, 64A12, 73C4, and 73D1 were captured on a Sensor Chip Protein A (GE HealthCare). The surface of the Biacore Sensor Chip Protein A consists of a carboxymethylated dextran matrix with a recombinant Protein A variant covalently attached. Soluble human ILT2-ECD, human ILT4-ECD, or rhesus ILT2-ECD were injected at a flow rate of 30 μL/min at 25° C. The ILT2 or ILT4 proteins were used at concentrations ranging from 1.6-200 nM in PBS-P buffer with 2 fold dilutions. Kinetic data were collected over time and fit using the simultaneous global fit equation to yield affinity constants (KD values) for each antibody.

The target in assay [3] is T2, soluble human ILT4-ECD (human, UniProt Q8N423 22-460).
T2 construct: also called LILRB2 extracellular domain
As to the kind of experiment: Biacore competition: antibody titrated against 20 nM ILT4-ECD, mixture injected over biotinylated HLA-A*1101 on a NeutrAvidin chip. On the procedure: as §1

Assay [4] deals with T3, human ILT4 chimeric reporter receptor (ILT4 extracellular domain fused to PILRbeta … (human, UniProt Q8N423 22-460)).
T3 construct: On the surface of NFAT-GFP reporter cells; associates with DAP12; also called ILT4 reporter cells; Human ILT4 reporter construct; not shown: The PILRbeta transmembrane/intracellular domain
As to the kind of experiment: reporter cell assay (not a direct binding assay): human ILT4 reporter cells co-cultured with Raji cells, %GFP+ by FACS. The protocol:
The ability of anti-ILT2/ILT4 antibodies to inhibit the interaction between ILT2 and/or ILT4 and MHC I molecules was evaluated using a reporter cell system. […] In this chimeric receptor system, the extracellular domain of the receptor of interest (e.g., ILT2 or ILT4) is fused with the transmembrane/intracellular domain of PILRβ that associates with the adaptor protein DAP12. When the chimeric receptor (e.g., ILT2 or ILT-4) is activated by binding to a ligand (e.g., MHC I molecule), DAP12 becomes phosphorylated and activates an NFAT-responsive promoter which drives GFP expression (see, e.g., Deng et al., 2014, Blood, 124:924-935).
Reporter cells were washed after staining and resuspended at 1×10⁶ cells/ml in X-VIVO™ 15 media (Lonza). […] For assays with Raji cells: anti-ILT2 antibody 27F9, anti-ILT4 antibody 48A5, anti-ILT2/ILT4 antibody 73D1 and Hz73D1.v1, and a control antibody were serially diluted and 50 μl was added to each well of a 96-well flat-bottom cell culture plate. […] The plates were incubated overnight at 37° C. The next day, reporter cells were assayed for GFP expression by FACS.
On the technique in general: A flow cytometer gives signals particle by particle.

The next assay has as its target T4, human ILT4 on cells (human, UniProt Q8N423 22-597).
T4 construct: also called LILRB2; human ILT4 expressed on 293T cells
The experiment in a line: flow cytometry, fluorescently labelled antibody on immune cell subsets of PBMC / red-cell-depleted whole blood. On the procedure:
Flow cytometry analysis of blood immune cells was performed on human and cyno PBMC and whole blood. PBMC were prepared from a leukopak (Allcells Inc.) by centrifugation through ficoll, washing with PBS and freezing in cryopreservation buffer in liquid nitrogen until use. Whole blood (Allcells Inc.) was obtained fresh and red blood cells (RBC) depleted using ammonium chloride RBC lysing solution (Biolegend). PBMC or whole blood samples were stained with a fluorescently labeled antibody panel to distinguish various immune subsets (monocytes, B cells, NK cells, CD4+ and CD8+ T cells, neutrophils and eosinophils). Samples were further stained with fluorescently labeled isotype, 27F9 (ILT2 specific), 48A5 (ILT4 specific), 73D1, and Hz73D1.v1. The number of ILT2 and ILT4 molecules per cell of each immune subset was estimated by incubation with Quantum Simply Cellular microspheres followed by flow cytometry analysis.

For assay [5], the target named is T1, soluble human ILT2-ECD. As to the kind of experiment: SPR (Biacore), antibody captured on Protein A chip, soluble human ILT2-ECD injected, 25 C. On the procedure: as §2
The target of assay [6] is T2, soluble human ILT4-ECD. As to the kind of experiment: SPR (Biacore), antibody captured on Protein A chip, soluble ILT-ECD injected (1.6-200 nM), 25 C. On the procedure:
as §2

T1 sequence (Q8NHL6 24-461): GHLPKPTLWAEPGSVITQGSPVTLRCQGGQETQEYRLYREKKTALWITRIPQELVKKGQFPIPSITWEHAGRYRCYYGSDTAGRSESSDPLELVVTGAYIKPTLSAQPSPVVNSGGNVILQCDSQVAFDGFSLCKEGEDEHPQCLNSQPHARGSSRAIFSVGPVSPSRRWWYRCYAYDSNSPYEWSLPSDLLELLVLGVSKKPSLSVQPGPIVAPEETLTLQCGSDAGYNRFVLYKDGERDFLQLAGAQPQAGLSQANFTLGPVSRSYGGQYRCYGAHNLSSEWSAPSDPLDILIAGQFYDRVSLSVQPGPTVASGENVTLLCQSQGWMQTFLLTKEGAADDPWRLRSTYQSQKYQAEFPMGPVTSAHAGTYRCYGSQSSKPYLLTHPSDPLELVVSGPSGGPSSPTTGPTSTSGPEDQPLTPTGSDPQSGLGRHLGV
T2 sequence (Q8N423 other isoform, or with tags, fused parts or gaps): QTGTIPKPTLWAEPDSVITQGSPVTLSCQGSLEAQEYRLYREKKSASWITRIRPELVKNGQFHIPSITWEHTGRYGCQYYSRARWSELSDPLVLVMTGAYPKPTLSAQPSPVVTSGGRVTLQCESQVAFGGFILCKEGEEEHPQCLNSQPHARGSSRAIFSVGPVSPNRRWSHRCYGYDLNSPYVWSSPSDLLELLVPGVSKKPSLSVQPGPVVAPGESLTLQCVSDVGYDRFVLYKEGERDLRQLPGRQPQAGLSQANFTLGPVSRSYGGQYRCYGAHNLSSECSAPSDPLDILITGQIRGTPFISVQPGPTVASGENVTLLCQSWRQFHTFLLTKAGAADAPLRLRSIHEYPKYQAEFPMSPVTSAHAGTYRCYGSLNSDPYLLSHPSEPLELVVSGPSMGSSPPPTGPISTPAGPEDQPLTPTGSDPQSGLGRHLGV
T4 sequence (Q8N423 other isoform, or with tags, fused parts or gaps): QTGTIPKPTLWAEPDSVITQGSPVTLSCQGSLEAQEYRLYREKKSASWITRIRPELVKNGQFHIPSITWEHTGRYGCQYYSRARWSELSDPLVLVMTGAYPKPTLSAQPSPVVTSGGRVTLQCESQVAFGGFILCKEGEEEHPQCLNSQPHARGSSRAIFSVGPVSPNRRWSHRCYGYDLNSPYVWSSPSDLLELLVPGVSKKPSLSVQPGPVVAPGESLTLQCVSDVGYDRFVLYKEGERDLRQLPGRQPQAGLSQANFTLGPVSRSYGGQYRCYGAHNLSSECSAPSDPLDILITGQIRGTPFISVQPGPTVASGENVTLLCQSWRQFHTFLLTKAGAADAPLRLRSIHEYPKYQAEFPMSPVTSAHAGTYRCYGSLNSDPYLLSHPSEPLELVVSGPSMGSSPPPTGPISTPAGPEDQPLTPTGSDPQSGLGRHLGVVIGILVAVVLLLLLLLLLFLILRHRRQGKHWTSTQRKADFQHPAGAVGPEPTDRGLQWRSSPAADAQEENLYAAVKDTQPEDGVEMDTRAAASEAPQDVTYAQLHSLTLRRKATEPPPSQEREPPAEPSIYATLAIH
Human ILT2-Fc, sequence (Q8NHL6 24-461 limits assumed): as the sequence (Q8NHL6 24-461) above
human ILT2 on cells, sequence (Q8NHL6 24-650): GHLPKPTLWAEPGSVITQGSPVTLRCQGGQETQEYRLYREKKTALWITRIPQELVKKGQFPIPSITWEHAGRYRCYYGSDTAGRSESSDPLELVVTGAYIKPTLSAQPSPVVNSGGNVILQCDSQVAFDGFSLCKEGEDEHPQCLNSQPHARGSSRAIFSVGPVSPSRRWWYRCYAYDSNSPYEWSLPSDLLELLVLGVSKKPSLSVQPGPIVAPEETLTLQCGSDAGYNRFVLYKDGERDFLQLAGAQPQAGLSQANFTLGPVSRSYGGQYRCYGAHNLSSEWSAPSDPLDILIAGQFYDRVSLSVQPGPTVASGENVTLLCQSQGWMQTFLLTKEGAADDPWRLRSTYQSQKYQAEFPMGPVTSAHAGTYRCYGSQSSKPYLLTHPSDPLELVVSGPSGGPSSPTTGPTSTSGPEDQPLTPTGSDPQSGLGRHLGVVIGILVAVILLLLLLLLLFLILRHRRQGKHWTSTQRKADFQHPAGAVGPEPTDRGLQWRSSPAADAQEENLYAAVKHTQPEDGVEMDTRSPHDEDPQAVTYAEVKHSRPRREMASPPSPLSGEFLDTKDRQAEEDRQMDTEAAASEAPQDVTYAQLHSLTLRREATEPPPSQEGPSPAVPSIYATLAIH

B1: anti-ILT2 antibody 27F9 (antibody, V domains shown)
VH: QVQLKESGPGLVAPSQSLSITCTVSGFSLTNYGVSWVRQPPGKGLEWLGIIWGDGSTNYHSALISRLSISKDNSKSQVFLKLNSLQADDTATYYCAKPNWDTYAMDFWGQGTSVTVSS
VL: DIQMTQTTSSLSASLGDRVTISCRASQDISNFLNWYQQKPDGTVKLLIYCTSKLHSGVPSRFSGSGSETDYSLTISNLEQEDIATYFCQQGNTLPPTFGGGTKLEII
notes: Mouse hybridoma antibody; also called clone 27F9; anti-ILT2 (27F9)
As a reminder, the IC50 is the concentration that gives 50% inhibition. The low end stands for greater potency in that assay, the high end for weaker potency in that assay. The term Kd denotes the concentration at which binding is half-saturated. A high value points to weaker binding. The term koff denotes the first-order rate constant of dissociation. Read a high koff as a short-lived complex. In general, kon refers to a measure of how fast the partners come together. For the molecule B1, the “IC50 (read off the curve)” value with soluble human ILT2-ECD [1] was about 9000 pM. In the assay with human ILT2 on cells, the “EC50, NKL cytolytic activity against 721.221-HLA-G target cells” value turned out to be 64 pM. The IC50 with Human ILT2-Fc turned out to be 8900 pM. In the assay with soluble human ILT2-ECD [2], this molecule yielded a Kd of 260 pM, a koff of 5.4e-05 s⁻¹ and a kon of 210000 M⁻¹ s⁻¹. The binding result with soluble human ILT4-ECD [3] is reported as “no binding (tested: about 200 nM)”. Moreover, the binding result in assay [4] is “no binding (tested: Log nM about 1.5 (about 30 nM))”. In addition, the binding result with human ILT4 on cells was “no binding (tested: not given)”.

B2: anti-ILT4 antibody 47C8 (antibody, V domains shown)
VH: EVQLQQSGPDLVKPGASVKISCKASGYSFTGYYMHWVKQSHGKSLEWIGRVYPNNGDTSYNQKFKVKAILTVDKSSSTAYMELRSLTSEDSAVYYCARGATVVESLFAYWGQGTLVTVSA
VL: DIVLTQSPASLAVSLGQRATISCRASESVDNYGNNFLHWYQQKPGQPPKLLIYRTSNLESGIPARFSGSGSRTDFTLTINPVEADDVATYYCQQSNEDPYTFGGGTKLEIK
notes: Mouse hybridoma antibody
For B2, the binding result with soluble human ILT2-ECD [5] is recorded as “no binding (tested: 1.6-200 nM)”. In the assay with soluble human ILT4-ECD [6], this molecule yielded a Kd of 74 pM, a koff of 2.5e-05 s⁻¹ and a kon of 340000 M⁻¹ s⁻¹.
